We go through 1 molecule from publication PMC6658013 (PLoS Pathogens, 2019).

For the assay, the target named is T1, prefusion-stabilized RSV F (DS-Cav1), subtype B (strain B9320), with C-terminal His tag and Strep-tag II … (human respiratory syncytial virus B, …, UniProt Q6V2E7, stabilised).
T1 construct: copies: 3 + 3
Kind of assay: SPR. As to conditions: both partners purified.

B1: RSD5-WT Fab (parental RSD5) (Fab, V domains shown)
VH: QVQLVESGGGVVQPGRPLRLSCAASGFAFNNFALHWVRQAPGKGPEWLAAVSYDGTSPYYAESVRARFSISRDNSKKTFYLQLDSLRPEDTAVYYCARGLGSGSYSWIGYFYAMDVWGRGTTVTVSS
VL: QSALTQPASVSGSPGQSITISCTGTSSDVGGYVYVAWYQQHPGTAPKLIIYDVSDRPSGVSNRFSGSKSGNTASLTISGLQAEDDADYYCISYTDRNTVVFGGGTKLTVL
As for B1, the binding result is “binds”.
